Experimental data reported in patent US20160317649A1, “EPITOPES OF HERPES SIMPLEX VIRUS” (priority 2007, published 2016).
Where two headings read alike, the source gives them in different places.

What was measured:
Conditions in all cases: modification not given
HLA DRB1*0701 (human) [1] = biological target: HLA DRB1*0701 (human)
HLA DRB1*0101 (human) [2] = biological target: HLA DRB1*0101 (human)
HLA DRB1*0101 (human) [3] = biological target: HLA DRB1*0101 (human); remark: listed apart in the source
HLA DRB1*1302 (human) = biological target: HLA DRB1*1302 (human)
HLA DRB1*0101 (human) [4] = biological target: HLA DRB1*0101 (human); remark: listed apart in the source
HLA DRB1*0701 (human) [5] = biological target: HLA DRB1*0701 (human); remark: listed apart in the source

AYQQGVTVDSIG [24.2] was tested, and the IC50 (HLA DRB1*0701 (human) [1]) was 2720 nM and the IC50 (HLA DRB1*0101 (human) [2]) was 471 nM.

Work on HAPAAPANPGLI [34.1] yielded an IC50 (HLA DRB1*0101 (human) [3]) of 3550 nM.

In the case of APAAPANPGLII [34.2], the IC50 (HLA DRB1*1302 (human)) is reported as 642 nM and the IC50 (HLA DRB1*0101 (human) [4]) is reported as 1270 nM.

YQQGVTVDSIGM [24.3] showed an IC50 (HLA DRB1*0701 (human) [5]) of 389 nM.
